Biological target: the molecule itself
Experiment: SEC; gel filtration of purified YfhQ on Superdex 200 in buffer B (50 mM Tris-HCl pH 7.5, 150 mM NaCl, 10 mM MgCl2, 10% glycerol); self-association, dimer

B1: YfhQ protein of Escherichia coli, His-tagged (enzyme, UniProt P0AE01 1-246, looked up)
chain: MLQNIRIVLVETSHTGNMGSVARAMKTMGLTNLWLVNPLVKPDSQAIALAAGASDVIGNAHIVDTLDEALAGCSLVVGTSARSRTLPWPMLDPRECGLKSVAEAANTPVALVFGRERVGLTNEELQKCHYHVAIAANPEYSSLNLAMAVQVIAYEVRMAWLATQENGEQVEHEETPYPLVDDLERFYGHLEQTLLATGFIRENHPGQVMNKLRRLFTRARPESQELNILRGILASIEQQNKGNKAE
notes: YfhQ (TrmJ), SPOUT superfamily methyltransferase of Escherichia coli; yfhQ gene in the pCA24N vector; theoretical mass of the His-tagged monomer 29.168 kDa; also called TrMet(Xm32); TrmJ; source: E. coli BL21 (DE3), purified (Ni2+ Chelating Sepharose, Superdex 200 gel filtration)
stoichiometry N: 2

Reference: paper PMC1569432, “The yfhQ gene of Escherichia coli encodes a tRNA:Cm32/Um32 methyltransferase” (BMC Molecular Biology, 2006)
